In patent publication US20190275125A1 (H LUNDBECK A S, published 2019):

Key:
Assay in all cases: MSD inhibition assay, abeta 1-28 coated plates
Met-var24 = biological target: Met-var24
Var24 = biological target: Var24
[1] = biological target: T1, abeta 1-12 trimer construct (UniProt P05067 672-683; P05067 672-683; P05067 672-683)
T1 construct: range 1-12
T1 sequence (peptide): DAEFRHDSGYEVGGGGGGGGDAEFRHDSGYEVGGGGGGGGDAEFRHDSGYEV

Measured: binding result

B1: Biosimilar (BS) bapineuzumab (antibody, V domains shown)
VH: EVQLVESGGGLVQPGGSLRLSCAGSGFTFSNYGMSWVRQAPGKGLEWVASIRSGGGRTYYSDNVKGRFTISRENAKNSLYLQMNSLRAEDTAVYYCVRYDHYSGSSDYWGQGTLVTVSS
VL: DVVMTQSPLSLPVTLGQPASISCKSSQSLLDSDGKTYLNWLQQRPGQSPRRLIYLVSKLDSGVPDRFSGSGSGTDFTLKISRVEAEDVGVYYCWQGTHFPRTFGGGTKVEIKR
binds: all assays above
